Experimental data: PMC10234635

Biological target: recombinant mouse CD47 antigen (mouse) (UniProt Q61735)
Experiment: SPR

Sequence of UniProt Q61735 (Q61735 19-303): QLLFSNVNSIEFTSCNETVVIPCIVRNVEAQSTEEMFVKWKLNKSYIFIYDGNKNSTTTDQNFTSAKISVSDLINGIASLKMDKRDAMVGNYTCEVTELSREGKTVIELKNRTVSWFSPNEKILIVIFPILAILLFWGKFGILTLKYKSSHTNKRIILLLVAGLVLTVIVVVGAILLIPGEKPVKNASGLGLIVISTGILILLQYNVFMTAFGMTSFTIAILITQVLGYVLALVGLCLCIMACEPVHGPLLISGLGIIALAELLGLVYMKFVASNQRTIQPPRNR

B1: anti–CTLA-4×SIRPα heterodimer (bispecific antibody, V domains shown)
VH: QVKLEESGPGLVNPSQSLSLSCSVTGYSITSGYGWNWIRQFPGQKVEWMGFIYYEGSTYYNPSIKSRISITRDTSKNQFFLQVNSVTTEDTATYYCARQTGYFDYWGQGTMVTVSS
VL: DVMMTQSPSSMSVSAGEKATISCKSSQSLFNSNAKTNYLNWYMQKPGQSPKLLTYYASTRHTGVPDRFRGSGSGTDFTLTISSVQDEDQAFYYCQQWYDYPYTFGAGTKLEIK
- fold lower affinity than its affinity to CTLA-4: 10 fold
- fold reduction in affinity against SIRPα-Fc: 5 fold
